Test [1] has as its target T1, zebrafish P2X4.1 receptor (zfP2X4) (Danio rerio, UniProt F8W463).
T1 sequence (F8W463 1-389): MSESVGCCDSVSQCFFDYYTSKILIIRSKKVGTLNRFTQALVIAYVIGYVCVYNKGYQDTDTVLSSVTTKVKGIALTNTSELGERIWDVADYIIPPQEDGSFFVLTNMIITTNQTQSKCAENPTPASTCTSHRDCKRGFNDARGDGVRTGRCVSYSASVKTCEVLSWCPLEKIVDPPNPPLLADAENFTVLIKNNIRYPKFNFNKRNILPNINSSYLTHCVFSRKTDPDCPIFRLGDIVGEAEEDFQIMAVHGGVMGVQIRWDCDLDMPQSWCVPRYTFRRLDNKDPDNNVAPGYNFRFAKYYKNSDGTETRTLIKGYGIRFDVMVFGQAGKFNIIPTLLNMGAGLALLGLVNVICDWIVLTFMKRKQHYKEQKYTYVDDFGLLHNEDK
In words: whole-cell patch clamp of transfected tsA201 cells. The test is classed as cell-based. (In general: In patch-clamp work, channel activity is measured electrically.)

Test [2] deals with ΔzfP2X4-A (zebrafish P2X4.1 receptor with amino- and carboxyl-terminal deletions) (zebrafish) (UniProt F8W463). The test is described as follows: crystal structure.
Test [3] deals with ΔzfP2X4-B (ΔzfP2X4-A with C51F/N78K/N187R) (zebrafish) (UniProt F8W463). The test is described as follows: crystal structure.

In general, EC50 refers to the concentration needed to bring the measured effect to its halfway point. High values mean weaker potency, low ones greater potency. In test [1], `Nc1ncnc2c1ncn2[C@@H]1O[C@H](COP(=O)(O)OP(=O)(O)OP(=O)(O)O)[C@@H](O)[C@H]1O` [ATP] displayed an EC50 of approximately 800 µM.

One may read the stoichiometry N as a count of units in the complex or per binding partner. As to “ΔzfP2X4-A (zebrafish P2X4.1 receptor with amino- and carboxyl-terminal deletions) (from UniProt F8W463 1-389)”, the stoichiometry N in test [2] came out at 3.

As for “ΔzfP2X4-B (ΔzfP2X4-A with C51F/N78K/N187R) (from UniProt F8W463 1-389) (receptor)”, the stoichiometry N in test [3] was 3.

The values are drawn from paper PMC2720809 (Nature, 2009).
